Experimental data published in US20020106690A1 (published 2002).
Where “and” joins values, the source holds several entries; their conditions need not be identical. Equal entries are not always repeated.

T1: Ste4p, P18851
T1 chain: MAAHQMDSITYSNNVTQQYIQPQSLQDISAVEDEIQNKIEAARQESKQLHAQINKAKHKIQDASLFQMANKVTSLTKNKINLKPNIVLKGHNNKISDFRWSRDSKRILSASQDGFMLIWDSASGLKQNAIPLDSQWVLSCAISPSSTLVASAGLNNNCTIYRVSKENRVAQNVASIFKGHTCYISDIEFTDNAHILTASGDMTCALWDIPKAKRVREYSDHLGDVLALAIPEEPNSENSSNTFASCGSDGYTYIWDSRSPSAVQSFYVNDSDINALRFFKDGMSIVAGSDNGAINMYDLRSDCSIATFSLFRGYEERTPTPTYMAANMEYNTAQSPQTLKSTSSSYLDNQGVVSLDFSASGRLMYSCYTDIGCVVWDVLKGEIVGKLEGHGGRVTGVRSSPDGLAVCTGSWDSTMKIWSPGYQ

T2: GST-Ste20p FL (Saccharomyces cerevisiae (yeast), UniProt Q03497 1-939)
T2 construct: Purified on glutathione-Sepharose beads; also called GST fusion with full length Ste20p; not shown: glutathione S-transferase (GST), amino-terminal fusion partner
T2 sequence: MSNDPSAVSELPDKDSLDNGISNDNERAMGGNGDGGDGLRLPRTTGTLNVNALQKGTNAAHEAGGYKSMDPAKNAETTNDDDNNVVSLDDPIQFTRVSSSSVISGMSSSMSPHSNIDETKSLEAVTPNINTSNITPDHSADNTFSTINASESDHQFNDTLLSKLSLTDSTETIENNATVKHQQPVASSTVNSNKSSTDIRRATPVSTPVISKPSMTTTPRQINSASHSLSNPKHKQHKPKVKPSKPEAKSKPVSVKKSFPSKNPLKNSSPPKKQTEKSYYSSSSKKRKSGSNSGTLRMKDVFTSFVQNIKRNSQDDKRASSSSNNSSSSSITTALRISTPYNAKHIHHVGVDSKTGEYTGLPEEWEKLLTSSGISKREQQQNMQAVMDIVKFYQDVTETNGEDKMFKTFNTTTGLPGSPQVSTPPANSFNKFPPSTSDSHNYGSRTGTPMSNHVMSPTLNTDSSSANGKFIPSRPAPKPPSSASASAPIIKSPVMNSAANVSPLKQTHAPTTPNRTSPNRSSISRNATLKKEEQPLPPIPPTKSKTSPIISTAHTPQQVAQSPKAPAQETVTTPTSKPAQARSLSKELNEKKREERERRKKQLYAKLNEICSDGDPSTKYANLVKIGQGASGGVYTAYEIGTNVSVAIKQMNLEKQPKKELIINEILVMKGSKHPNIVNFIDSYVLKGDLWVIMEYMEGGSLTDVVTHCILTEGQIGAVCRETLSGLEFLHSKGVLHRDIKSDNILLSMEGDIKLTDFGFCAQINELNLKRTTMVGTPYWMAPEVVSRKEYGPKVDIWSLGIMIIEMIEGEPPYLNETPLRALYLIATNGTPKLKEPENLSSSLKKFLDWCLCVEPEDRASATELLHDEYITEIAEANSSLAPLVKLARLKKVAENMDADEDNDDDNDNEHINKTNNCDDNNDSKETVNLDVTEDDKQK

B1: Ste20p (enzyme)
chain: T2 sequence
notes: Full length Ste20p in yeast cells (endogenous, or from pDH166 / pSTE20-5); also called STE20^WT; wild-type Ste20p
B2: HA-Ste18p (other, Saccharomyces cerevisiae (yeast), UniProt P18852 1-110, looked up, not shown: small tags and cut ends)
chain: MTSVQNSPRLQQPQEQQQQQQQLSLKIKQLKLKRINELNNKLRKELSRERITASNACLTIINYTSNTKDYTLPELWGYPVAGSNHFIEGLKNAQKNSQMSNSNSVCCTLM
notes: In vitro-translated from pBTL65; also called in vitro-translated HA-Ste18p; γ-subunit of the mating response G-protein
B3: HA-Ste4p (other, Saccharomyces cerevisiae (yeast), UniProt P18851 1-423, looked up, not shown: small tags and cut ends)
chain: T1 chain
B4: Ste20p^495-877 (enzyme)
chain: MNSAANVSPLKQTHAPTTPNRTSPNRSSISRNATLKKEEQPLPPIPPTKSKTSPIISTAHTPQQVAQSPKAPAQETVTTPTSKPAQARSLSKELNEKKREERERRKKQLYAKLNEICSDGDPSTKYANLVKIGQGASGGVYTAYEIGTNVSVAIKQMNLEKQPKKELIINEILVMKGSKHPNIVNFIDSYVLKGDLWVIMEYMEGGSLTDVVTHCILTEGQIGAVCRETLSGLEFLHSKGVLHRDIKSDNILLSMEGDIKLTDFGFCAQINELNLKRTTMVGTPYWMAPEVVSRKEYGPKVDIWSLGIMIIEMIEGEPPYLNETPLRALYLIATNGTPKLKEPENLSSSLKKFLDWCLCVEPEDRASATELLHDEYITEIAEA
notes: Overexpressed from the GAL1 promoter (pDH171) in cells deleted for STE20; also called STE20^495-877

Experiments:
Ste4p, P18851 = target: T1, Ste4p, P18851
HA-Ste4p [1] = target: B3; assay: co-immunoprecipitation from yeast extracts, densitometry of Western blots, against untreated cells
Method: (§1) (A) Time course of pheromone-induced Ste20p binding to HA-Ste4p. HA-Ste4p expressed from the STE4 promoter in cells deleted for STE4 was immunoprecipitated after treatment with 1 pM a-factor. Relative amounts of Ste20p and HA-Ste4p were determined in Western blots (see example in upper and middle panels) and quantified densitometrically (mean values ±SD, n=3) (lower panel). (B) Association of Ste5p with HA-Ste4p expressed from the STE4 promoter in cells deleted for STE4 . HA-Ste4p immunoprecipitates from exponentially growing (−) and pheromone-treated (90 minutes) (+) yeast cells were analyzed with antibodies to Ste5p (upper panel) or HA-Ste4p (lower panel). (C) Overexpression of Ste4p leads to binding to Ste20p. HA-Ste4p was overexpressed from the GAL1 promoter in cells deleted for STE20 (lane 1) or STE4 (lanes 2 and 3). HA-Ste4p expression was suppressed in glucose-containing medium in cells deleted for STE4 (lane 4). Immunoprecipitates obtained with antibodies to Ste20p (lanes 1 and 2) or the HA-epitope (lanes 3 and 4) were analyzed for the presence of Ste20p (upper panel) and HA-Ste4p (lower panel). (D) Coimmunoprecipitation of HA-Ste4p and Ste20p truncation mutants. […] HA-Ste4p (lanes 1 and 2) and Ste20p (lanes 3 and 4) immunoprecipitates were analyzed for the presence of Ste20p (upper panel) and HA-Ste4p (lower panel) by Western blot analyses. […]

GST-Ste20p FL = target: T2, GST-Ste20p FL; assay: GST pull-down of in vitro-translated HA-Ste18p
Ste20p = target: B1; assay: co-immunoprecipitation from yeast extracts, anti-HA IP, Western blot
Method: as §1, with “Relative” for “(A) Time course of pheromone-induced Ste20p binding to HA-Ste4p. HA-Ste4p expressed from the STE4 promoter in cells deleted for STE4 was immunoprecipitated after treatment with 1 pM a-factor. Relative”, “HA-Ste4p expression was suppressed in glucose-containing medium in cells deleted for STE4 (lane 4).” left out, “panel).” for “panel). (D) Coimmunoprecipitation of HA-Ste4p and Ste20p truncation mutants.”
For the detection of Ste20p fragments, a secondary sheep antibody specific to rabbit immunoglobulin light chains and a tertiary HRP-conjugated donkey antibody to sheep IgG were obtained from The Binding Site, Lim. […] For quantitation, immunoblots were evaluated by integrating densitometry using an Epson ES 1200-C densitometer and the NIH Image 1.59 software.

HA-Ste4p [2] = target: B3; assay: co-immunoprecipitation from yeast extracts, Western blot

| Binder | FUS1::lacZ expression (Ste4p, P18851) | FUS1::lacZ expression, Basal (Ste4p, P18851) | FUS1::lacZ expression, Induced (Ste4p, P18851) | G1 arrest (Ste4p, P18851) | Mating efficiencies (%) (Ste4p, P18851) | Shmoo formation (Ste4p, P18851) | fold increase in the interaction after pheromone treatment (HA-Ste4p [1]) | binding result (GST-Ste20p FL) | binding result (Ste20p) | binding result (HA-Ste4p [2]) |
| --- | --- | --- | --- | --- | --- | --- | --- | --- | --- | --- |
| B1 | 274 | 0.1 | 221 | + | 72.7% and 89.8% | + | ~5 fold |  |  |  |
| B2 |  |  |  |  |  |  |  | no binding |  |  |
| B3 |  |  |  |  |  |  |  |  | binds |  |
| B4 |  | < 0.1 | < 0.1 | - | 0.02% | - |  |  |  | no binding |
